Drawing on paper PMC5794992, this text covers Km of steady state Pi release (ENZchek) from 1 μM GTP-loaded BraA.Gα1 with 0.1–2.0 μM purified RGS-domain of BraA.RGS1 (His-tagged proteins from E. coli) and Km of steady state Pi release (ENZchek) from 1 μM GTP-loaded BraA.Gα1 with 0.1–2.0 μM purified RGS-domain of BraA.RGS2 (His-tagged proteins from E. coli) for 2 substances.

The target of the assay is BraA.Gα1 (Gα subunit of B. rapa), GAL4 DNA-binding domain fusion (Brassica rapa).
Sequence of BraA.Gα1 (Gα subunit of B. rapa), GAL4 DNA-binding domain fusion (Brassica rapa) (P18064 other isoform, or with tags, fused parts or gaps): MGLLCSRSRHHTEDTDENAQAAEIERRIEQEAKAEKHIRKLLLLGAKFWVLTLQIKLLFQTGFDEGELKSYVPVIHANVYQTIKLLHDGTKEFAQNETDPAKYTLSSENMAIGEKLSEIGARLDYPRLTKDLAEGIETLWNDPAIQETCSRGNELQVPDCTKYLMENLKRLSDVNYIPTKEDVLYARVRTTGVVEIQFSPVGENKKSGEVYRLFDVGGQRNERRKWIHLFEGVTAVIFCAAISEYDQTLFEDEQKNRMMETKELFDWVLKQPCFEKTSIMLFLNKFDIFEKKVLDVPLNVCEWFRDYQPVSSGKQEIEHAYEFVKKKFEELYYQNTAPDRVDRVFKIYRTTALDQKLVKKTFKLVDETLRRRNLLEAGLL

On to “RGS-domain of BraA.RGS1 (C-terminal cytosolic domain containing the RGS-box), GAL4 activation domain fusion (domain or fragment)”, for which the Km of steady state Pi release (ENZchek) from 1 μM GTP-loaded BraA.Gα1 with 0.1–2.0 μM purified RGS-domain of BraA.RGS1 (His-tagged proteins from E. coli) came to 0.244. Take “RGS-domain of BraA.RGS2 (C-terminal cytosolic domain containing the RGS-box), GAL4 activation domain fusion (domain or fragment)”: the Km of steady state Pi release (ENZchek) from 1 μM GTP-loaded BraA.Gα1 with 0.1–2.0 μM purified RGS-domain of BraA.RGS2 (His-tagged proteins from E. coli) was determined as 0.311.
